The source of these data is US20110262444A1.

This test addresses rabbit polyclonal antibodies for Peptide 2 (CRNGDD, SEQ ID NO: 2). The experiment in a line: Western blot, inhibition of H6D antibody binding to CRNGDD-BSA by free peptide, 10 µg peptide/µl antiserum. (A western blot detects proteins with antibodies after separation by electrophoresis.)

In turn, CRNGDD [CRNGDD (SEQ ID NO: 2) peptide, free] gave a percent inhibition of 81%.
